Patent publication US20210403593A1 (TIZONA THERAPEUTICS, published 2021)
Numbering of substitutions follows the chain as printed.

T1: cynomolgus macaque (Macaca fascicularis) CD39 (Macaca fascicularis, UniProt P49961 7-510 (human entry))
T1 construct: On engineered CHO cells and on primary cyno B cells and monocytes; also called cyno CD39; cCD39
T1 chain: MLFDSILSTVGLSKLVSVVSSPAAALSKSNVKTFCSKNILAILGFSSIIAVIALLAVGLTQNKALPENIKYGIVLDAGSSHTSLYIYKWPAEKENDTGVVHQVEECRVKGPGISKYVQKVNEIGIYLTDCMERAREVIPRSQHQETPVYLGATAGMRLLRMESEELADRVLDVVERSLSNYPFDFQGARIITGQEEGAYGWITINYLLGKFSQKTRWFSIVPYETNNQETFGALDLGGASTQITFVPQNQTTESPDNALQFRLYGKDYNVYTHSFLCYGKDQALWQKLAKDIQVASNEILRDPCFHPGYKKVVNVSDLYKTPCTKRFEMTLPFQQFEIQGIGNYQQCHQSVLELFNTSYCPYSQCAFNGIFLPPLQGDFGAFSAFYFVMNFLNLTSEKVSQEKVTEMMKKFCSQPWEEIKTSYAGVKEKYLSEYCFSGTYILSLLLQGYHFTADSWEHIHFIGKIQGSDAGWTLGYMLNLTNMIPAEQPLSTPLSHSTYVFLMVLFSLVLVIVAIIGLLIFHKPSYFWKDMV

T2: human CD39 (cellular) (human, UniProt P49961 1-510)
T2 construct: Same protein on engineered CHO cells and on cells that express it endogenously; also called hCD39; cellular CD39
T2 sequence: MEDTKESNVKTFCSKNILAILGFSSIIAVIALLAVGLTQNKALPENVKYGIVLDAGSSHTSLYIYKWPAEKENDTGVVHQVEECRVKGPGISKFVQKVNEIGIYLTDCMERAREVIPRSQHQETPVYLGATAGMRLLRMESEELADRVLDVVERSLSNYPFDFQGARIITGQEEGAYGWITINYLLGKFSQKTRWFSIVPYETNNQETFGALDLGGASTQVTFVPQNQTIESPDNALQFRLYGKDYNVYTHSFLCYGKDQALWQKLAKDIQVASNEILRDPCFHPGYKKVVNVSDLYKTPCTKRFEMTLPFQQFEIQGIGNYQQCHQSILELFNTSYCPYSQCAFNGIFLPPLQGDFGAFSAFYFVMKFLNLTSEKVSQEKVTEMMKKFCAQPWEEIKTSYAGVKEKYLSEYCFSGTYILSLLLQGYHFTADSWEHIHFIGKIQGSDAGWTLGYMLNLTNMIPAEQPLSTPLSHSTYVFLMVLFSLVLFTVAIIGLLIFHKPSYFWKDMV

B1: 27536 (antibody, V domains shown)
VH: QVQLVQSGAEVKKPGSSVKVSCKASGGTFSNYAISWVRQAPGQGLEWMGGIIPIFGTANYAQKFQGRVTITADESTSTAYMELSSLRSEDTAVYYCARDTLYSSGAYYGYNVWGQGTMVTVSS
VL: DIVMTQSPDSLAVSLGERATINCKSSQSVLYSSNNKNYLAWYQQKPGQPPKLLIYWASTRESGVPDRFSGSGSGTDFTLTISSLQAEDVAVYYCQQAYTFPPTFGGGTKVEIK
B2: 27535 (antibody, human IgG4 S228P, kappa, V domains shown)
VH: QVQLVQSGAEVKKPGSSVKVSCKASGGTFSSYAISWVRQAPGQGLEWMGGIIPIFGTANYAQKFQGRVTITADESTSTAYMELSSLRSEDTAVYYCARDTPRWRYHYFDYWGQGTLVTVSS
VL: EIVLTQSPATLSLSPGERATLSCRASQSVSSYLAWYQQKPGQAPRLLIYDASKRATGIPARFSGSGSGTDFTLTISSLEPEDFAVYYCQQVLNYPLTFGGGTKVEIKR
B3: 27568 (antibody, human IgG4 S228P, kappa, V domains shown)
VH: QVQLVQSGAEVKKPGSSVKVPCKASGGTFSSYAISWVRQAPEQGLEWMGSIIPIFGTANYAQKFQGRVTITADESTSTAYMELSSLRSEDTAVYYCAGESGGYRDHKLDVWGQGTVVTVSS
VL: B2 VL with K53N, V91S, L92V, N93F, Y94W, L96I
B4: 27587 (antibody, human IgG4 S228P, kappa, V domains shown)
VH: B3 VH with P21S, E42G, G98R, V116M
VL: B2 VL with V91D, L92V, N93L, Y94W
B5: 27577 (antibody, human IgG4 S228P, kappa, V domains shown)
VH: QVQLVQSGAEVKKPGSSVKVSCKASGGAFSSYAIGWVRQAPGQGLEWMGGIIPTFGTANYAQKFQGRVTITADESTSTAYMELSSLRSEDTAVYYCARDGGGYQHHYFDLWGRGTLVTVSS
VL: EIVMTQSPATLSVSPGERATLSCRASQSVGSNLAWYQQKPGQAPRLLIYGASTRATGIPARFSGSGSGTEFTLTISSLQSEDFAVYYCQQLTKWPLTFGGGTKVEIKR
B6: 27550 (antibody, human IgG4 S228P, kappa, V domains shown)
VH: EVQLVESGGGLVKPGGSLRLSCAASGFTFSSYSMNWVRQAPGKGLEWVSSISSSSSYIYYADSVKGRFTISRDNAKNSLYLQMNSLRAEDTAVYYCARERRGSLALGMDVWGQGTLVTVSS
VL: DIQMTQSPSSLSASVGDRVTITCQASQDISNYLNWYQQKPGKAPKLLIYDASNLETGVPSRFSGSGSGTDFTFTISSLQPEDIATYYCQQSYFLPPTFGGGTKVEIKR
B7: 27549 (antibody, human IgG4 S228P, kappa, V domains shown)
VH: QVQLVESGGGVVQPGRSLRLSCAASGFTFSSYGMNWVRQAPGKGLEWVAVIWYDGSNKYYADSVKGRFTISRDNSKNTLYLQMNSLRAEDTAVYYCARDLGGYSYGEPYYYYYGMDVWGQGTTVTVSS
VL: EIVLTQSPGTLSLSPGERATLSCRASQSVSSDYLAWYQQKPGQAPRLLIYGASSRATGIPDRFSGSGSGTDFTLTISRLEPEDFAVYYCQQAHSSPYTFGGGTKVEIKR
B8: 27579 (antibody, V domains shown)
VH: QVQLVQSGAEVKEPGASVKVSCKAPGYTFTSYYMHWVRQAPGQGLEWMGVINPSGGSTSYAQKFQGRVTMTRDTSTSTVYMELSSLRSEDTAVYYCARGKREGGTEYLRHWGQGTLVTVSS
VL: EIVLTQSPGTLSLSPGERATLSCRASQSVSSSYLAWYQQKPGQAPRLLIYGASSRATGIPDRFSGSGSGTDFTLTISRLEPEDFAVYYCQQYHSYITFGGGTKVEIK
B9: 29872 (antibody, V domains shown)
VH: B8 VH with E13K, P25S, T30K, Y33E, V50R, G55V, S59W
VL: B8 VL
notes: also called anti-CD39 antibody 29872
B10: 27571 (antibody, V domains shown)
VH: B3 VH with V20A, P21S, E42G, Q65R, A79T, G98R, K107R, V116M
VL: EIVMTQSPATLSVSPGERATLSCRASQSVGSNLAWYQQKPGQAPRLLIYGASTRATGIPARFSGSGSGTEFTLTISSLQSEDFAVYYCQQYLIWPLTFGGGTKVEIK

Biological target: T1, cynomolgus macaque (Macaca …)
Assay: flow cytometry, 100 nM IgG, MFI on CHO-cCD39 / MFI on parental CHO;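 further: antibodies bound to the cells for 30 min in PBS, then bound IgG was revealed with a fluorescent goat anti-human IgG secondary antibody, 20 min on ice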

Binder | Cell Binding (FOB)
B1 | 113 fold over background
B2 | 738 fold over background
B3 | 260 fold over background
B4 | 1400 fold over background
B5 | 339 fold over background
B6 | 2870 fold over background
B7 | 566 fold over background
B8 | 2670 fold over background
B9 | 4190 fold over background
B10 | 1610 fold over background

Biological target: T2, human CD39 (cellular)
Assay: flow cytometry, 100 nM IgG, MFI on CHO-hCD39 / MFI on parental CHO;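 further: cells exposed to IgG for 30 min on ice in PBS, bound antibody then revealed with a fluorescent goat anti-human IgG secondary (20 min, on ice)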
Experimental: 100 nanomolar IgGs (each antibody is indicated as a unique clone number in the FIG.) were incubated at 25° C. for 30 minutes on ice in phosphate buffered saline (PBS) with parental CHO cells or CHO cells engineered to express either human or cynomolgus macaque (Macaca fascicularis) CD39 (CHO CD39 cells). Cells were then washed with ice cold PBS and incubated with a fluorescently labeled goat-anti-human IgG for 20 minutes on ice. Cells were washed and resuspended in ice cold PBS prior to analysis by flow cytometry.

Binder | Cell Binding (FOB)
B1 | 89 fold over background
B2 | 301 fold over background
B3 | 267 fold over background
B4 | 1450 fold over background
B5 | 390 fold over background
B6 | 2030 fold over background
B7 | 822 fold over background
B8 | 1950 fold over background
B9 | 1450 fold over background
B10 | 1400 fold over background
